# No end group written: not given here. *: point of attachment. FITC = O=C1OC2(c3ccc(O)cc3Oc3cc(O)ccc32)c2ccc(NC(=S)*)cc21
# B1: NLS-E4: XRCC1(241–276)/(T257E/S259E/S266E/S268E) quadruple variant (peptide)
# peptide: SPKGKRKLDLNQEEKKEPEKPPAQLEPEVPKRPKLP
# notes: human XRCC1 residues 241-276 with four glutamate substitutions that mimic phosphorylation; also called NLS(T257E/S259E/S266E/S268E)
# B2: FL-NLS: FITC-XRCC1 (241–276) (peptide)
# peptide: {FITC}-SPKGKRKLDLNQEEKKTPSKPPAQLSPSVPKRPKLP
# notes: human XRCC1 residues 241-276, the bipartite NLS; also called Full XRCC1 NLS ligand; FITC-labeled bipartite XRCC1 NLS; source: synthetic peptide, bought: Genscript
# B3: M2: XRCC1 (268-276)-G-Lys-FITC (peptide)
# peptide: SVPKRPKLPGK(FITC)
# notes: added G-Lys that carries the FITC label; also called major motif ligand; major motif peptide; source: synthetic peptide, bought: Genscript
# How the values were obtained:
# Details in all cases: both partners purified
# [1] = biological target: T1, murine Importin α with the Importin β binding domain (IBB) deleted, Impα(70–529) (murine, UniProt P52293 70-529); test: fluorescence polarisation; competition: serial dilutions of unlabeled peptide into 150 nM Impα(70–529) and 100 nM FITC-labeled FL-NLS peptide in FP buffer; fit to a competitive binding equation; apparent
# [2] = biological target: T1, murine Importin α with the Importin β …; test: fluorescence polarisation; direct titration: serial dilutions of Impα into 100 nM FITC-labeled peptide; FP buffer (20 mM Tris pH 7.7, 125 mM NaCl, 1 mM EDTA, 2 mM TCEP, 5% sucrose, 10 mM NaN3); room temperature (legend: 25 °C); apparent dissociation constants, single-site fit
# [3] = biological target: Impα(70–529)(W184R/W231R) (murine, UniProt P52293 70-529, W184R | W231R); test: as above
Binder,Kd [1],Kd [2],Kd [3]
B1,0.604 µM,,
B2,,0.108 µM,7.4 µM
B3,,2.1 µM,690 µM

# — article PMC4548243, “Nuclear Localization of the DNA Repair Scaffold XRCC1: Uncovering the Functional Role of a Bipartite NLS” (Scientific Reports, 2015)
